In US20260167959A1, “APTAZYME-BASED REGULATABLE GENE EXPRESSION SYSTEMS” (REJUVENATE BIO INC, priority 2022, published 2026):

B1: RA147 (nucleic acid)
DNA: GCGCGTCCTGGATTCGCGGAAACGCGTACATCCAGCTGACGAGTAGAATACCAGCATCGTCTTGATGCCCTTGGAAGTCTCCCAAATAGGACGAAACGCGC
modifications: expressed or natural sequence
B2: RA155 (nucleic acid)
DNA: GCGCGTCCTGGATTCGCGGAAACGCGTACATCCAGCTGACGAGTCCCAAATAGGACGAGAATACCAGCATCGTCTTGATGCCCTTGGAAGTCTCGCGAAACGCGC
modifications: expressed or natural sequence
B3: RA158 (nucleic acid)
DNA: GCGCGTCCTGGATTCGCGGAAACGCGTACATCCAGCTGACGAGTCCCAAATAGGACGAGTGATACCAGCATCGTCTTGATGCCCTTGGCAGCACTAAACGCGC
modifications: expressed or natural sequence
B4: RA150 (nucleic acid)
DNA: GCGCGTCCTGGATTCGCGGAAACGCGTACATCCAGCTGACGAGTCCCAAATAGGACGAAAGGAATACCAGCATCGTCTTGATGCCCTTGGAAGTCCCGCGC
modifications: expressed or natural sequence
B5: RA152 (nucleic acid)
DNA: GCGCGTGGAATACCAGCATCGTCTTGATGCCCTTGGAAGTCCCCTGGATTCGCGGAAACGCGTACATCCAGCTGACGAGTCCCAAATAGGACGAAACGCGC
modifications: expressed or natural sequence
B6: RA153 (nucleic acid)
DNA: CGAGAATACCAGCATCGTCTTGATGCCCTTGGAAGTCTCGGCGCGTCCTGGATTCGCGGAAACGCGTACATCCAGCTGACGAGTCCCAAATAGGACGAAACGCGC
modifications: expressed or natural sequence
B7: RA162 (nucleic acid)
DNA: GCGCGTCCTGGATTCGCGGAAACGCGTACATCCAGCTGACGAGTCCCAAATAGGGGAATACCAGCATCGTCTTGATGCCCTTGGAAGTCCACGAAACGCGC
modifications: expressed or natural sequence
B8: RA146 (nucleic acid)
DNA: GCGCGTCCTGGATTCGCGGAAACGCGTACATCCAGCTGACGAGTCCCAAATAGGAATACCAGCATCGTCTTGATGCCCTTGGAAGTCCGGACGAAACGCGC
modifications: expressed or natural sequence
B9: RA151 (nucleic acid)
DNA: GCGCGTCCTGGATTCGCGGAAACGCGTACCGGAATACCAGCATCGTCTTGATGCCCTTGGAAGTCCGGCATCCAGCTGACGAGTCCCAAATAGGACGAAACGCGC
modifications: expressed or natural sequence
B10: RA159 (nucleic acid)
DNA: GCGCGTCCTGGATTCGCGGAATACCAGCATCGTCTTGATGCCCTTGGAAGTCCGCGGAAACGCGTACATCCAGCTGACGAGTCCCAAATAGGACGAAACGCGC
modifications: expressed or natural sequence
B11: RA144 (nucleic acid)
DNA: GCGCGCGAGAATACCAGCATCGTCTTGATGCCCTTGGAAGTCTCGTCCTGGATTCGCGGAAACGCGTACATCCAGCTGACGAGTCCCAAATAGGACGAAACGCGC
modifications: expressed or natural sequence
B12: RA165 (nucleic acid)
DNA: GCGCGTCCTGGATTCGCGGAAACGCGTAGAGAATACCAGCATCGTCTTGATGCCCTTGGAAGTCTCCATCCAGCTGACGAGTCCCAAATAGGACGAAACGCGC
modifications: expressed or natural sequence
B13: RA149 (nucleic acid)
DNA: GCGCGGAGAATACCAGCATCGTCTTGATGCCCTTGGAAGTCTCTCCTGGATTCGCGGAAACGCGTACATCCAGCTGACGAGTCCCAAATAGGACGAAACGCGC
modifications: expressed or natural sequence
B14: RA016 (nucleic acid)
DNA: GCGCGTCCTGGATGAGAATACCAGCATCGTCTTGATGCCCTTGGAAGTCTCTCGCGGAAACGCGTACATCCAGCTGACGAGTCCCAAATAGGACGAAACGCGC
modifications: expressed or natural sequence
B15: RA163 (nucleic acid)
DNA: GCGCGTCCTGGATTCGCGGAAACGCGTACATCCAGCCGGAATACCAGCATCGTCTTGATGCCCTTGGAAGTCCGGCTGACGAGTCCCAAATAGGACGAAACGCGC
modifications: expressed or natural sequence
B16: RA145 (nucleic acid)
DNA: GCGCGGAATACCAGCATCGTCTTGATGCCCTTGGAAGTCCGTCCTGGATTCGCGGAAACGCGTACATCCAGCTGACGAGTCCCAAATAGGACGAAACGCGC
modifications: expressed or natural sequence
B17: RA156 (nucleic acid)
DNA: GCCGGAATACCAGCATCGTCTTGATGCCCTTGGAAGTCCGGCGCGTCCTGGATTCGCGGAAACGCGTACATCCAGCTGACGAGTCCCAAATAGGACGAAACGCGC
modifications: expressed or natural sequence
B18: RA154 (nucleic acid)
DNA: GCGCGTCCTGGATTCGCGGAAACGCGAGAATACCAGCATCGTCTTGATGCCCTTGGAAGTCTCGTACATCCAGCTGACGAGTCCCAAATAGGACGAAACGCGC
modifications: expressed or natural sequence
B19: RA014 (nucleic acid)
DNA: GCGCGTCCTGGATTCGCGGAAACGCGTACATCCAGCTGACGAGTCCCAAATAGGACGAAACGGAATACCAGCATCGTCTTGATGCCCTTGGAAGTCCGCGC
modifications: expressed or natural sequence
B20: RA157 (nucleic acid)
DNA: GCGCGTCCTGGATTCGCGGAAACGCGTAAGAATACCAGCATCGTCTTGATGCCCTTGGAAGTCTCATCCAGCTGACGAGTCCCAAATAGGACGAAACGCGC
modifications: expressed or natural sequence
B21: RA015 (nucleic acid)
DNA: GCGCGTCCTGGATTCGCGGCGGAATACCAGCATCGTCTTGATGCCCTTGGAAGTCCGAAACGCGTACATCCAGCTGACGAGTCCCAAATAGGACGAAACGCGC
modifications: expressed or natural sequence
B22: RA161 (nucleic acid)
DNA: GCGCGTCCTGGATTCGCGGAAACGCGTACATCCAGCTGACGAGTCCCAAATAGGACCCGGAATACCAGCATCGTCTTGATGCCCTTGGAAGTCCGGGAAACGCGC
modifications: expressed or natural sequence
B23: RA166 (nucleic acid)
DNA: GCGCGTCCTGGATTCGCGGAAACGCGTACATCCAGCTGACGAGTCCCACGAGAATACCAGCATCGTCTTGATGCCCTTGGAAGTCTCGAATAGGACGAAACGCGC
modifications: expressed or natural sequence
B24: RA167 (nucleic acid)
DNA: GCGCGTCCTGGATTCGCGGAAACGCGTACATCCAGGGAATACCAGCATCGTCTTGATGCCCTTGGAAGTCCCTGACGAGTCCCAAATAGGACGAAACGCGC
modifications: expressed or natural sequence
B25: RA164 (nucleic acid)
DNA: GCGCGTCCTGGATTCGCGGAAACGCGTACATCCAGCTGACGAGTCCCAAATAGGACGCGAGAATACCAGCATCGTCTTGATGCCCTTGGAAGTCTCGAAACGCGC
modifications: expressed or natural sequence
B26: RA148 (nucleic acid)
DNA: GCGCGTCCTGGATTCGCGGAAACGCGTACATCCAGCTGACGAGAGAATACCAGCATCGTCTTGATGCCCTTGGAAGTCTTCCCAAATAGGACGAAACGCGC
modifications: expressed or natural sequence
B27: RA160 (nucleic acid)
DNA: GCGCGTCCTGGATTCGCGGAAACGCGTACATCCAGCTGACGAGGGAATACCAGCATCGTCTTGATGCCCTTGGAAGTCCTCCCAAATAGGACGAAACGCGC
modifications: expressed or natural sequence

Test system: Renilla luciferase RNA
Test: Barcoded aptazyme variant library screen: un-cleaved Renilla luciferase RNA by barcode read counts, HEK293-T cells
Format: cell-based
Settings: un-cleaved Renilla luciferase RNA, HEK293-T cells cultured with 1 mM theophylline (ON) over without theophylline (OFF); barcode read counts, triplicate
How it was run: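 Barcode sequencing of cDNA versus DNA, normalized per aptazyme, gave the un-cleaved Renilla luciferase RNA fraction and fold-change with versus without theophylline (triplicates). Library: T3H48 ribozyme with one of seven theophylline aptamer variants inserted at each position, placed in the Renilla 3′ UTR of a dual-luciferase vector.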

**Q.** How did the “Fold change in RNA expression between the ON state and the OFF state” value (shortened to “Fold change”) turn out when B1 was run?
**A.** 1.4 fold

**Q.** With B2 as the molecule, how does the “Fold change” value read?
**A.** 1.3 fold

**Q.** With B3 as the molecule, how does the “Fold change” value read?
**A.** 1.3 fold

**Q.** For B4, which “Fold change” value is on record?
**A.** 1.4 fold

**Q.** For B5, which “Fold change” value is on record?
**A.** 1.4 fold

**Q.** B6 was tested. Which “Fold change” value did it give?
**A.** 1.3 fold

**Q.** B7 was tested. Which “Fold change” value did it give?
**A.** 1.3 fold

**Q.** How did the “Fold change” value turn out when B8 was run?
**A.** 1.4 fold

**Q.** B9 was tested. Which “Fold change” value did it give?
**A.** 1.4 fold

**Q.** B10 was tested. Which “Fold change” value did it give?
**A.** 1.3 fold

**Q.** With B11 as the molecule, how does the “Fold change” value read?
**A.** 1.4 fold

**Q.** With B12 as the molecule, how does the “Fold change” value read?
**A.** 1.3 fold

**Q.** How did the “Fold change” value turn out when B13 was run?
**A.** 1.4 fold

**Q.** With B14 as the molecule, how does the “Fold change” value read?
**A.** 2.8 fold

**Q.** B15 was tested. Which “Fold change” value did it give?
**A.** 1.3 fold

**Q.** With B16 as the molecule, how does the “Fold change” value read?
**A.** 1.4 fold

**Q.** For B17, which “Fold change” value is on record?
**A.** 1.3 fold

**Q.** For B18, which “Fold change” value is on record?
**A.** 1.3 fold

**Q.** With B19 as the molecule, how does the “Fold change” value read?
**A.** 3.1 fold

**Q.** For B20, which “Fold change” value is on record?
**A.** 1.3 fold

**Q.** How did the “Fold change” value turn out when B21 was run?
**A.** 3.0 fold

**Q.** With B22 as the molecule, how does the “Fold change” value read?
**A.** 1.3 fold

**Q.** How did the “Fold change” value turn out when B23 was run?
**A.** 1.3 fold

**Q.** For B24, which “Fold change” value is on record?
**A.** 1.3 fold

**Q.** How did the “Fold change” value turn out when B25 was run?
**A.** 1.3 fold

**Q.** How did the “Fold change” value turn out when B26 was run?
**A.** 1.4 fold

**Q.** With B27 as the molecule, how does the “Fold change” value read?
**A.** 1.3 fold
